Measurements as given in publication PMC11993684, “Fibromodulin selectively accelerates myofibroblast apoptosis in cutaneous wounds by enhancing interleukin 1β signaling” (Nature Communications, 2025).

T1: recombinant human fibromodulin (FMOD) with C-terminal His-tag (human, UniProt Q06828 19-376)
T1 chain: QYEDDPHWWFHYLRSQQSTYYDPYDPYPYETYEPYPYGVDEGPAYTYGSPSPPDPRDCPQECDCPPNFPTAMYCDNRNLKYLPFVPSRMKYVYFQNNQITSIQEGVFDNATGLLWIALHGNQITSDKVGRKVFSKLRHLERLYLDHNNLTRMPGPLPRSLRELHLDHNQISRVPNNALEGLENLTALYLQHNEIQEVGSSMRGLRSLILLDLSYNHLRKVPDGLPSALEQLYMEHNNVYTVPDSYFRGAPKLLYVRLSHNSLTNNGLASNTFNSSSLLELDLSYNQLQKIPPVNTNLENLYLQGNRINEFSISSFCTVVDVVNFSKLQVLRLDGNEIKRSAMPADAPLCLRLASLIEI

B1: recombinant human fibromodulin (FMOD) with C-terminal His-tag (natural protein, UniProt Q06828 19-376, looked up)
chain: QYEDDPHWWFHYLRSQQSTYYDPYDPYPYETYEPYPYGVDEGPAYTYGSPSPPDPRDCPQECDCPPNFPTAMYCDNRNLKYLPFVPSRMKYVYFQNNQITSIQEGVFDNATGLLWIALHGNQITSDKVGRKVFSKLRHLERLYLDHNNLTRMPGPLPRSLRELHLDHNQISRVPNNALEGLENLTALYLQHNEIQEVGSSMRGLRSLILLDLSYNHLRKVPDGLPSALEQLYMEHNNVYTVPDSYFRGAPKLLYVRLSHNSLTNNGLASNTFNSSSLLELDLSYNQLQKIPPVNTNLENLYLQGNRINEFSISSFCTVVDVVNFSKLQVLRLDGNEIKRSAMPADAPLCLRLASLIEI
notes: fibromodulin, human; cDNA of a human FMOD transcript (NM_002023) subcloned into pSecTag2A; secreted into the culture supernatant of CHO-K1 cells; Proteoglycan made in CHO cells; also called His-tagged FMOD; not shown: His-tag, C-terminal, kept

Tests used:
[1] = biological target: T2, IL1β-IL1R1-IL1RAP ternary complex formed in vitro from recombinant proteins (human, UniProt P01584 117-269; P14778 18-336; Q9NPH3 21-367); experiment: pull-down; Pierce His Protein Interaction Pull-Down Kit; 150 μg His-tagged FMOD immobilised as bait; His-tag-free 100 μg IL1β, 100 μg IL1R1, 100 μg IL1RAP, or the complex formed beforehand (100 μg IL1β, 50 μg IL1R1, 50 μg IL1RAP, 4 °C overnight) as prey; eluate by SDS-PAGE and Western blotting; settings: both partners purified
T2 construct: interleukin 1 beta, human, recombinant, His-tag-free, 17 kDa on SDS-PAGE; as m2; interleukin 1 receptor type 1, recombinant, His-tag-free, 55 kDa on SDS-PAGE; as m3; interleukin 1 receptor accessory protein, recombinant, His-tag-free, 70-75 kDa on SDS-PAGE; as m4; See the notes of m3 and m4 on the bought constructs; also called IL1β-IL1R1-IL1RAP complex; IL1β-IL1R1-ILRAP ternary complex; source: …

[2] = biological target: B1; experiment: SPR; Biacore 3000; FMOD immobilised on CM5 chip by amine coupling; IL1R1 or IL1RAP in HBS-EP pH 7.4 (0.15 M NaCl, 10 mM HEPES, 3 mM EDTA, 0.005% polysorbate 20), 50 μL/minute; double referencing; Scrubber 2.0; settings: both partners purified
[3] = biological target: T1, recombinant human fibromodulin (FMOD) …; experiment: SPR

binding result [1] | Kd [2] | koff [3] | Binder
binds |  |  | B1
 | 430 nM | 0.02 s⁻¹ | recombinant IL1R1 (R&D Systems 269-1R-100/CF) (receptor, human, UniProt P14778 18-336, looked up, interleukin 1 receptor type 1, recombinant, His-tag-free, 55 kDa on SDS-PAGE, carrier-free; also called interleukin 1 receptor type 1; source: bought: R&D Systems (carrier-free)) LEADKCKEREEKIILVSSANEIDVRPCPLNPNEHKGTITWYKDDSKTPVSTEQASRIHQHKEKLWFVPAKVEDSGHYYCVVRNSSYCLRIKISAKFVENEPNLCYNAQAIFKQKLPVAGDGGLVCPYMEFFKNENNELPKLQWYKDCKPLLLDNIHFSGVKDRLIVMNVAEKHRGNYTCHASYTYLGKQYPITRVIEFITLEENKPTRPVIVSPANETMEVDLGSQIQLICNVTGQLSDIAYWKWNGSVIDEDDPVLGEDYYSVENPANKRRSTLITVLNISEIESRFYKHPFTCFAKNTHGIDAAYIQLIYPVTNFQK
